Pseudovirus-ACE2 receptor inhibition, OMVs data for one substance are collected here from patent US20250213666A1.

This assay concerns the target Spike protein on SARS-CoV-2 pseudovirus expressing luciferase (COVID-19 Pseudovirus Neutralizing Antibody Assay, Abnova) (SARS-CoV-2) (UniProt P0DTC2). Kind of assay: cell-based or functional assay.

With “Intimin-Ty1 nanobody (pIntimin-Ty1), surface displayed on E. coli Nissle 1917 or on its OMVs (VHH)”, the Pseudovirus-ACE2 receptor inhibition, OMVs at 22 µg/mL is 30 to 32%.
